This data set deals with the molecule itself. The experiment in a line: crystal structure.

We go through 1 protein from paper doi:10.1101/2022.02.28.482149 (bioRxiv, 2022).

B1: MaFRSA (Methanomethylophilus alvus pyrrolysyl-tRNA synthetase, MaPylRS N166A:V168A) (enzyme)
chain: MTVKYTDAQIQRLREYGNGTYEQKVFEDLASRDAAFSKEMSVASTDNEKKIKGMIANPSRHGLTQLMNDIADALVAEGFIEVRTPIFISKDALARMTITEDKPLFKQVFWIDEKRALRPMLAPNLYSVMRDLRDHTDGPVKIFEMGSCFRKESHSGMHLEEFTMLALADMGPRGDATEVLKNYISVVMKAAGLPDYDLVQEESDVYKETIDVEINGQEVCSAAVGPHYLDAAHDVHEPWSGAGFGLERLLTIREKYSTVKKGGASISYLNGAKIN
B1: the binding result is given as “binds”.
